The results in this text go back to US20240158831A1 (PROMEGA, published 2024).

B1: OgLuc variant L27V (9B8 opt+K33N+L27V+T39T+K43R+Y68D) (enzyme)
chain: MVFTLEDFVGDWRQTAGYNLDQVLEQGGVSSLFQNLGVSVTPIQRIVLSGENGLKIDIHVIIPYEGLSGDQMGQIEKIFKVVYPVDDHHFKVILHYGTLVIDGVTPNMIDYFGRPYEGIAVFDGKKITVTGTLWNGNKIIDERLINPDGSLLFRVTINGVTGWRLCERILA
notes: Expressed as a HaloTag fusion (pFN18A) in E. coli KRX and purified with the HaloTag Protein Purification System; It eluted as a 24 kDa protein
B2: OgLuc variant C1+A4E, HQHQHQ N-terminally tagged (enzyme)
chain: HQHQHQMVFTLEDFVGDWRQTAGYNQDQVLEQGGLSSLFQKLGVSVTPIQKIVLSGENGLKFDIHVIIPYEGLSGFQMGLIEMIFKVVYPVDDHHFKIILHYGTLVIDGVTPNMIDYFGRPYEGIAVFDGKKITVTGTLWNGNKIIDERLINPDGSLLFRVTINGVTGWRLCERILA
notes: Purified from E. coli KRX with the HISLINK system
B3: OgLuc variant 9B8, HQHQHQ N-terminally tagged (enzyme)
chain: HQHQHQMVFTLEDFVGDWRQTAGYNLDQVLEQGGLSSLFQKLGVSVTPIQKIVLSGENGLKIDIHVIIPYEGLSGYQMGQIEKIFKVVYPVDDHHFKVILHYGTLVIDGVTPNMIDYFGRPYEGIAVFDGKKITVTGTLWNGNKIIDERLINPDGSLLFRVTINGVTGWRLCERILA
notes: as for B2

This data set deals with the molecule itself. In words: gel filtration chromatography (Superdex 200 5/150 GL), self-association. An excerpt:
Gel filtration analysis was used to verify the expected molecular weight of the purified OgLuc proteins based on the theoretical values and consequently to determine their oligomeric state. A comparison between the relative hydrodynamic volume of the OgLuc variants C1+A4E and 9B8 was made by gel filtration chromatography. For this analysis, the nucleotide sequence for the OgLuc variants, C1+A4E and 9B8, were cloned into a HQ-Tagged FLEXI® Vector (Promega Corp.) to create a HQHQHQ N-terminally tagged protein that was overexpressed in E. coli KRX cells. The overexpressed proteins were purified using the HISLINK™ Protein Purification System (Promega Corp.) according to manufacturer's instructions. Samples of each individual standard and sample protein were analyzed by gel filtration chromatography, which was performed at 24° C. on an Agilent 1200 HPLC, using a Superdex 200 5/150 GL column (GE Healthcare) with a flow rate of 0.25 mL/min (FIGS. 43A-B). The mobile phase (i.e., running buffer) consisted of 50 mM Tris and 150 mM NaCl, pH 7.5. Protein elution was monitored at 214 and 280 nm. A standard calibration curve was generated using: 1) Ovalbumin, 43 kDa (GE Healthcare), 2) Carbonic Anhydrase, 29 kDa (Sigma) and 3) Myoglobin, 17 kDa (Horse Heart, Sigma). The molecular weights of the purified proteins were calculated directly from the calibration curve.
The relative hydrodynamic volume of the L27V variant was made by gel filtration chromatography. For this analysis, the nucleotide sequence for the L27V variant was cloned into a HaloTag® vector pFN18A (Promega Corp.) to create a HaloTag®-terminally tagged protein that was overexpressed in E. coli KRX cells (Promega Corp.). The overexpressed protein was purified using the HaloTag® Protein Purification System (Promega Corp.) according to manufacturer's instructions. Samples of each individual standard and sample protein were analyzed by gel filtration chromatography performed at 24° C. on an Agilent 1200 HPLC using a Superdex 200 5/150 GL column (GE Healthcare) with a flow rate of 0.25 mL/min (FIG. 56).
Regarding B1, the binding result is recorded as “no binding”.

Take B2: the binding result is listed as “binds”.

For the protein B3, the binding result was “no binding”.
